41 sequences from the nanobody polyreactivity screen of Harvey et al. (2022) can be followed below.

The series is described as follows: yeast display, Sf9 membrane polyspecificity reagent, FACS + sequencing; frameworks hold sequencing errors. The gist of the method: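 Galactose-induced (36–48 hours) yeast carrying a synthetic nanobody display library were exposed to 10% biotinylated, detergent-solubilized Sf9 membrane reagent at 4 °C for 1 hour. FACS followed streptavidin microbead enrichment, using low and high (top ~1%) gates for expression (anti-HA) and reagent binding (streptavidin). Colony PCR, MiSeq 2 × 250 sequencing and CDR-length filtering followed. Labels for polyreactivity reflect the gate of origin.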
“QVQLVESGGGVVQAGGSLRLSCAASGRIFGPNDMGWYRQAPGKGRELVAAITDSGDITYYADSVKGRFTISRDTAKNTVNVQMNCLKPEDTAVNYFAADHTYENEYRGQGTQVTVSS”: the “polyreactivity (PSR sort gate)” value is given as “low polyreactivity”.

Turning to “QVQLVESGGGVVQAGGSLRLSCAASGRIFYGNAMGWYRQAPGKERELVAAISSGTSTNYADSVKGRFTISRDNAKNTVYLQMTSLKPEDTAVYYCAAGSYSRYLYSLYFDFDYWGQGTQVTVSS”, the “polyreactivity (PSR sort gate)” value was “low polyreactivity”.

Regarding “QVQLVESGGGVVQAGGSLRLSCAASGSIFFLYAMGWSRQATGKEREFVAAITGTADSTYYADSVKGRFTISRDDAKNTVYLQMNSLKPEDTAVYYCATDYWSSVKLDDYWGQGTQVTVSS”, the “polyreactivity (PSR sort gate)” value was “low polyreactivity”.

Regarding “QVQLVESGGGVVQAGGSLRLSCAASGSTFGRYAMGWYRQAPGKERELVAAISWSGGSTYYADSVKGRFTISRDNAKNTVYLQMNSLKPEDTAVYYCNKYWRGSSSRDDYWGQGTQVTLSS”, the “polyreactivity (PSR sort gate)” value is “high polyreactivity”.

Consider “QVQLVESGGGVVQAGGSLRLSCAASGSTFGYYTMGWNRQAPGKERELVAAISRSGCRTYYADSVKGRFTISRDNAMNAVYLHMTSLKPDYTAVYYCNADGTRYAGDDYWGQGSQVTVSS”, for which the “polyreactivity (PSR sort gate)” value was “high polyreactivity”.

Take “QVQLVESGGGVVQAGGSLRLSCAASGSTSYFNVIGWYRPAPGKERELVAAISWSGGSTYADSVKGRFTISRDNAKNTVYLQMNSLKREDTAVYYCNKDYGYVQLRFSGPGYYWGQGTQVTVSS”: the “polyreactivity (PSR sort gate)” value is reported as “low polyreactivity”.

On to “QVQLVESGGGVVQAGGSLRLSCAASGTIFYENAMGWYRQAPGKEREFVATIDLIGDRTYYADSVKGRFTISRDNAKNTVYLQMNSLKPEDTAVYYCAAERVGVFFRYDYWGQGTQVTVSS”, for which the “polyreactivity (PSR sort gate)” value was “low polyreactivity”.

“QVQLVESGGGVVQAGGSLRLSCAATGSRYWDYPMGWYRQAPGKERELVAAISTSGGSTYYADSVKGRFTISRDNAKNTVYLQMNSLNPEDTAVYYCATRVRTGSVGNFNYWGQGTQVTVSS”: the “polyreactivity (PSR sort gate)” value is listed as “high polyreactivity”.

As for “QVQLVESGGGVVQAGGSLRLSCAAYGSIFEANDMGWYRQAPGKERELVAAIDANTGSTYYADSVKGRFTISLDNAKNTVYLQMNSLKPEVTAVYYCNAQVYLQTAYDYWGQGTQVSVSS”, the “polyreactivity (PSR sort gate)” value was “low polyreactivity”.

On to “QVQLVESGGGVVQAGGSLRLSCASSGSIFGPYVMGWYRQAPGKERELVAAISKSGGSTYYADSVKGRFTISRDNAKNTVFLLMNSLKPEDTAVYYCATDYLGGGKRYYYWGQGTQVTVSS”, for which the “polyreactivity (PSR sort gate)” value is listed as “high polyreactivity”.

Turning to “QVQLVESGGGVVQAGGSLRLTCAASGLTFNIYSLGWYRQAPGKEREFDATISSSGGGTYYADSVKGRFSISRDHAKNTVYVQLHSLPPEDTAVYYCARDSPDHVTYLHYHYDYWGQGTQVTVSS”, the “polyreactivity (PSR sort gate)” value is reported as “low polyreactivity”.

Regarding “QVQLVESGGGYVQAGGSLRLSCAASGSIFRGYAMGWSRQAPGKEWELVATIDSSAGSTYYADSVKGRYTISRDNAKNTVYLQMNSLKPEDTAVFYCATDPYGYYYSGYDYWGQGTQVTVSW”, the “polyreactivity (PSR sort gate)” value is listed as “low polyreactivity”.

Turning to “QVQLVESGGGYVQAGGSLRLSCAASGSTFKGYAMGLYRQAPGKEMELVAAITWIGGSTTYADSVKGRFTISCDNAKNTVYLQMNSLKPEDTAVYYCAADNFWYFLSATEDYWGQGTQVTVSS”, the “polyreactivity (PSR sort gate)” value is on record as “low polyreactivity”.

For the sequence “QVQLVESGGPLVKSRGSLRLICAASGRTYCEYSMGWYRQAPGKERELVADITNGSRTYYADSVKGRFTISRDNAKNTVYLQMNSLKPEDTSVYYCAADWWKEVDYWGQGTEVTVSS”, the “polyreactivity (PSR sort gate)” value is recorded as “low polyreactivity”.

As for “QVQLVESGGRKVQAGGSLRLSCAASGSTIWPYAMGCYRQAPAKERELVAAISNGGGTKYADSVKGRFTISRDNAKNTVYLQMNSLKPEHTAVYYCAKTLWTGRAWYDYWGQGTQVTVSS”, the “polyreactivity (PSR sort gate)” value is on record as “high polyreactivity”.

As to “QVQLVESGGRLLQEGGSLRLSCAASGLIVTYYTMGWYRPAPGKERELVASIDSGGSTNYADSVQGRFTISRDNAKNTVYLQLNCLKPEDTAVEFCAADYDGWFYEMGYWGQGTQVTVSS”, the “polyreactivity (PSR sort gate)” value is “low polyreactivity”.

As to “QVQLVESGGRLVEAGGSLRISWAASGLIFGYNAMGWYRQAPGKERELVAAISGSGGRTYYADSVKGRFTISRDNAKNTVYLQMNSLKPEDTAVFYCAVADRRGLGYWGQGTQVTVSS”, the “polyreactivity (PSR sort gate)” value is “high polyreactivity”.

For the sequence “QVQLVESGGRLVEAGGSLRLSCAASGSTISGNAMGWYRQAPGKERELVAEITSDDSTNYADSVKGRFTISRDNAKNSVYLQMNSLKPEDTAVYYCAADVTYPYYQDHSVDYFIGYAYWRQGTQVTVSS”, the “polyreactivity (PSR sort gate)” value is “low polyreactivity”.

As for “QVQLVESGGRLVQAGGILRLSCAASGRSFYFYAMGWYRKAPGKERELVAAITRGDDTNYADSVKGRFTISRDNAKNTVNLQMNSLKPEDTAVYYFGYATEYDYWGQGTQVTVSS”, the “polyreactivity (PSR sort gate)” value was “low polyreactivity”.

As for “QVQLVESGGRLVQAGGILRLSCAASGSTFSPYAKGRNRQAPGKERELVAGITSSGGDTYYADSVKGRFTISRDNAKNTVYLLMNSLKPEDTAVYYCAADWWVLGQLWFDYWGHGTQVTVSS”, the “polyreactivity (PSR sort gate)” value is reported as “low polyreactivity”.

Consider “QVQLVESGGRLVQAGGILRLSCAASGSTSHYYAMGWSRQAPGKERELVASITCSGGSTYYADSVKGRFTISRDNAKNTVYLQMNSLKPEATAVYYCNAQERRVRDYDYWGQGTQVTVSS”, for which the “polyreactivity (PSR sort gate)” value is “low polyreactivity”.

Take “QVQLVESGGRLVQAGGRHRLSGAASRNIFDRYALGWNLQAPGKESDLVAGITWSGGSTYYADSVKGRFTISRDNAKNTVYLHMNSLKPEDTAVYYCGQANYYWGQGTQVTVSS”: the “polyreactivity (PSR sort gate)” value is recorded as “low polyreactivity”.

On to “QVQLVESGGRLVQAGGSLLLSCAASGFTFDDYAMGRYRQAPGTERELVASITTSGASKYYADSVKGRFTISRDNAKNPVYLQMNSLKPEDTAVYYCAVDNDSYTSPRAGDDYWGQGTQVTVSS”, for which the “polyreactivity (PSR sort gate)” value is on record as “low polyreactivity”.

As to “QVQLVESGGRLVQAGGSLRLICAASGLTIRSYAMGWYRQAPGKERELVAAISDSGDSTYYADSVKGRFTISRDNAKNTVYFQMNSLKPEDTAVYYCAVEYSYEYEFWGQGTQVTVSS”, the “polyreactivity (PSR sort gate)” value is recorded as “low polyreactivity”.

Take “QVQLVESGGRLVQAGGSLRLISAASGFTFRAYAMGWYRQAPGKERELVAAINISGGSTYYADSVKGRFTISRDNAKKTVYLKMNSLKPEDTAVYYCAADWPEDWYTEYGYWGQGTQVTVSS”: the “polyreactivity (PSR sort gate)” value is reported as “low polyreactivity”.

For “QVQLVESGGRLVQAGGSLRLLCAASGSTFRYYAMGWYRPAPGKERELLAAISRSGGRTYYADSVKGRFTMSRDNAKTTVYLQMKSLKPEDTAVYDCATRGDGSSWGDYDYWGQGTQVTVSS”, the “polyreactivity (PSR sort gate)” value is “high polyreactivity”.

As for “QVQLVESGGRLVQAGGSLRLRCAASGSTFMSNAMGWYRPAPGKERELVAAITGSGGNTYYADSVKGRFTISRDNAKNTVYLQMNSLKPEDTAVYYCAAVAPRSNYWRGYYYWGQGTQVTVSS”, the “polyreactivity (PSR sort gate)” value is “high polyreactivity”.

For the sequence “QVQLVESGGRLVQAGGSLRLSCAASGFIFDDYDIGWYTQAPGKERELVDAISWSGGSTYYEDSLKGRFTISRDNAKNTVYLQMNSLKPEDTAVYYCNADYYRSRYDYWGQGTQVTVSS”, the “polyreactivity (PSR sort gate)” value is recorded as “high polyreactivity”.

For “QVQLVESGGRLVQAGGSLRLSCAASGFIFKYYAMGWYRQAPGKEREFVAAITWSGSSTNYADSVKGRFTISRDNAKNTVYLQMNSLKPEDTAVYYCNADRKYYKYDYWGQGTQVTVSS”, the “polyreactivity (PSR sort gate)” value was “high polyreactivity”.

“QVQLVESGGRLVQAGGSLRLSCAASGFIFYQYAMGWYRQAPGKERELVAVISRTGSTSYADSVKGRFTISRDNAKNSVYLQLNSLKAEDTAGYYCAKKRALRYYGYDYWGQGTQVTVSS”: the “polyreactivity (PSR sort gate)” value is listed as “high polyreactivity”.

Turning to “QVQLVESGGRLVQAGGSLRLSCAASGFTFGAYAMGWYRQAPGKERELVATIRYSGDSTYYADSVKGRFTISRDNAKNTVYLQMNSLKPEDTAVYYCAADVYGGIGYDYWGQGTQVTVSS”, the “polyreactivity (PSR sort gate)” value is listed as “low polyreactivity”.

Consider “QVQLVESGGRLVQAGGSLRLSCAASGFTFNRYAMGGYRHAPGKERELVARITRGGSTKYADSVKGRFTISRDNAKNTVYLQMNSLKPEDTAVYYCAADYGGFLGYDYWGQGTQVTVSS”, for which the “polyreactivity (PSR sort gate)” value is “high polyreactivity”.

With “QVQLVESGGRLVQAGGSLRLSCAASGFTFPWYTMGWYRQPPGKEREFVAAITVSGGSTYYADSVKGRFTISRDNAKNSVYLQMNSLKPEDTAVYYCARDGRVVYDSRYDYWGQGTQVTVSS”, the “polyreactivity (PSR sort gate)” value is reported as “low polyreactivity”.

For the sequence “QVQLVESGGRLVQAGGSLRLSCAASGINFGYYAMGLYRQAPGKEMELVAAINKSGTSTYYADSVKGRFTISRDNAKNTVYLQMNSLKPEDTAVYYCAVDYARDKGYPYGYWGQGTQVTVSS”, the “polyreactivity (PSR sort gate)” value is recorded as “low polyreactivity”.

As to “QVQLVESGGRLVQAGGSLRLSCAASGIPFEYYAMGWYRQAPGKERELVAAIDTGGSTNYADSVKGRFTISRDNAKNTVYLQMNSLKPEDTAVYYCAADWSWWDGEDYHFEYDYWGQGTQVTVSS”, the “polyreactivity (PSR sort gate)” value is reported as “low polyreactivity”.

In the case of “QVQLVESGGRLVQAGGSLRLSCAASGLIYSRYAMGGYRQAPGKEREFVATISWSGGSRYYADSVKGRFTISRDNAKNTVYLQMNSLKPEDTAVYYCATKKWYYPGDSKYYYWGQGTQVTVSS”, the “polyreactivity (PSR sort gate)” value was “high polyreactivity”.

For the sequence “QVQLVESGGRLVQAGGSLRLSCAASGLTFGRYAMGWYSQAPGKERELVASISQRGGSSYYADSVKGRFTISRDNAKNTVFLQMNSLKPEDTAVYYCNARVRDIYRYSMDSWGQGTQVTVSS”, the “polyreactivity (PSR sort gate)” value is “low polyreactivity”.

With “QVQLVESGGRLVQAGGSLRLSCAASGLTFSGYAMGWYRQAPGKERELVAAISGGGGSTYYADSVKGRFTISRDNAKNTVYLQMNSLKPEDTAVYYCAARPRWYTYTRQEYDYWGQGTQVTVSS”, the “polyreactivity (PSR sort gate)” value is on record as “high polyreactivity”.

Turning to “QVQLVESGGRLVQAGGSLRLSCAASGRIFASNAMGWYRQAPGKERELVAAITTTGGSTYYADSVKGRFTISRDNAKNTVYLQMNSLKPEDTAVYYCAARAIPRVRRYGSMNYWGQGTQVTVSS”, the “polyreactivity (PSR sort gate)” value is recorded as “high polyreactivity”.

Turning to “QVQLVESGGRLVQAGGSLRLSCAASGRIFGYYAMGWYRQAPGKERELVAAINYSGGSTYYADSVKGRFTISRDNAKNTVYLQMNSLKPEDTAVYYCNAVRYTLLYYWGQGTQVTVSS”, the “polyreactivity (PSR sort gate)” value was “high polyreactivity”.

Turning to “QVQLVESGGRLVQAGGSLRLSCAASGRIFNNYAMGWYRQAPGKERELVAAISGGGSTNYADSVKGRFTISRDNAKNTVYLQMNSLKPEDTAVYYCASGYLKASRDLYETVPYDYWGQGTQVTVSS”, the “polyreactivity (PSR sort gate)” value was “low polyreactivity”.
